# Data: article PMC9820559, “Investigation of the Fuzzy Complex between RSV Nucleoprotein and Phosphoprotein to Optimize an Inhibition Assay by Fluorescence Polarization” (International Journal of Molecular Sciences, 2022)
# Ends that are not written are not given here. Peptide text beside a SMILES is read from it. * marks the point of attachment. dicyano BODIPY FL = CC1=CC(C)=[N+]2C1=Cc1ccc(CCC(=O)*)n1[B-]2(C#N)C#N; FITC = O=C1OC2(c3ccc(O)cc3Oc3cc(O)ccc32)c2ccc(NC(=S)*)cc21; X1 = Cc1cc(C)n2c1C=C1C=CC(CCC(=O)*)=[N+]1[B-]2(C#N)C#N
# T1: RSV N-RNA complex (full-length N protein in ring-shaped complexes with bacterial RNA) (human respiratory syncytial virus, UniProt P03418 1-391)
# T1 construct: human RSV nucleoprotein N, full length; concentrations are of N protomer; also called N-RNA rings; source: in lysate for the co-purification; purified (glutathione-Sepharose, thrombin, Superdex 200) as N-RNA complex; copies: 10-11
# T1 sequence (looked up): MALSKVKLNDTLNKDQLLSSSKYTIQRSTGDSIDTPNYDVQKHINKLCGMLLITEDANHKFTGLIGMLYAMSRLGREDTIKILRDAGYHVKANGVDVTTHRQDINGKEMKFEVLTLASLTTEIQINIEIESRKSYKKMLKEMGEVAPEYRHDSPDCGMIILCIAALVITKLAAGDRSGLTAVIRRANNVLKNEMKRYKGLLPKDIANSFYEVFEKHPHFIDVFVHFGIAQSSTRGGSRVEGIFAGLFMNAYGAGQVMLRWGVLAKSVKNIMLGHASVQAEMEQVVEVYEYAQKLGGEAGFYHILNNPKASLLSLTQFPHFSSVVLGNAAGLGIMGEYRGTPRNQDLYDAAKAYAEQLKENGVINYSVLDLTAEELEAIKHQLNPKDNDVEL
# Tests used:
# RSV N-RNA complex [1] = target: T2, RSV N-RNA complex (Human respiratory syncytial virus A, UniProt P03418); assay: biochemical; assay type: binding
# T2 construct: Full-length N was produced by co-expression with the C-terminal domain of RSV P protein in E. coli BL21(DE3); made in house; host or cells: E. coli BL21(DE3), co-transformed with pET-N and pGEX-P(161–241)
# Method: We carried out FP measurements using the fluorescent F11 peptide and N-RNA complex. […] No salt was added to promote high affinity.
# We first measured binding of Fn peptides (200 nM) to N-RNA in Tris buffer by FP (Figure 5A,B). […] We fitted the data with ΔFPmax and Kd as parameters.
# We therefore measured fluorescein FP in the presence of N-RNA. […] To test if fluorescein binds to the P-binding site on the N-RNA, we carried out a competition experiment with M76 (Figure 6C).
# We first performed FP measurements in salt-free Tris pH 8 buffer (Figure 8A). We measured binding curves using 200 nM of fluorescent peptides.
# (§1) Fluorescence polarization measurements were carried out on a Paradigm Detection Platform (Beckman Coulter, Brea, CA, USA) operating with a microplate reader, a fluorescein detection cartridge (excitation range 485/20 nm, emission range 535/25 nm for both parallel and perpendicular components) and the SpectraMax Pro 6.1 software (Molecular Devices, San Jose, CA, USA). Samples were placed in polystyrene black flat bottom 96-well microplates (Cellstar, Greiner bio-one, Frickenhausen, Germany) with 20 µL final volume in each well. If not stated otherwise, the final concentration of fluorescent ligands was 200 nM. The buffer was either 20 mM MES pH 6.5, salt-free or with 250 mM NaCl, or 20 mM Tris pH 8.0 salt-free or with 100 mM NaCl, supplemented with 0.01% Brij-35. Mixing was done using the corresponding plate reader option. The temperature was set to 20 °C. Data were recorded in top reading mode. Measurements were done in triplicate and after an incubation time of 30 min, if not indicated otherwise. Fluorescence polarization (FP) in mFP units was determined from the parallel (I∥) and perpendicular (I⊥) components of the emitted light according to Equation (4). A grating factor G of 1.2 was determined using 1 nM fluorescein in 1 mM NaOH and assuming a theoretical FP of 27 mFP [48]. Background signal was measured from wells containing only buffer, and the mean value was subtracted from each I∥ and I⊥ component. (4) FP (mP)=1000×(I∥−G∗I⊥)/(I∥+G×I⊥)
# We assumed that the measured fluorescence polarization FP is a linear combination of the FP of the fluorescent probe in the absence of N protein (FPmin) and the FP of N-bound fluorescent probe (FPmax), weighted by the molar fraction. The molar fraction x = [P]bound/[P]0 can then be expressed as a ratio of FP differences (Equation (8)). (8) x=(FP−FPmin)/(FPmax−FPmin)=∆FP/∆FPmax
# To determine the Kd value of a complex between a fluorescent probe and N protein, a series of samples with constant probe concentration and varying N concentration was measured. FP binding curves were fitted with a single binding site model and a 1:1 stoichiometry.
# RSV N-RNA complex [2] = target: T2, RSV N-RNA complex; assay: Fluorescence polarization inhibition of N-RNA binding to fluorescent probes; conditions: probe BCN8E 200 nM
# Source text: We next performed inhibition experiments for the F11-(N-RNA) complex by M76 (Figure 4B). FP values decreased with increasing competitor concentration. At saturation, FP nearly reached the value of free F11, showing that the F11 peptide could be nearly completely displaced. Since the same concentration range was used for NNTD and N-RNA, poor solubility of M76 can be ruled out to explain the saturation observed before complete displacement of F11 in the presence NNTD (Figure 3C). This reinforces the hypothesis of a second binding site on NNTD, outside the canonical P-binding site. […]
# To probe the potency of M76 as an inhibitor, we carried out competition experiments with the M76 molecule and several BCNn peptides. M76 was able to displace the fluorescent probes from N-RNA, and inhibition curves were obtained (Figure 8E). Since we used different N concentrations to have similar dynamic ranges of FP for the series of fluorescent peptides, we cannot directly compare M76 IC50s. However, Kis may be compared.
# as §1
# To assess inhibition of a complex between a fluorescent probe and N protein by peptides or the M76 molecule, the concentration of N was set to work with an FP range comprised between FPmin and ~80% FPmax. Peptides were added from 1 or 2 mM stock solution in water at neutral pH. M76 was added from 10 or 20 mM stock solutions in ethanol or in DMSO. […] Inhibition data were fitted with Origin 7, and in parallel with the Excel solver module. All data were compatible with an absence of cooperativity. FPmax and FPmin were fitted, and the maximal inhibition %i,max was set to 100%. (11) %i=100×[1−(FP−FPmin)/(FPmax−FPmin)] (12) %i=%i,max×[inhibitor]/[inhibitor]+IC50
# Inhibition constants Ki were calculated on the IC50-to-Ki converter for a protein-ligand-inhibitor system (https://bioinfo-abcc.ncifcrf.gov/IC50_Ki_Converter/index.php, accessed on 24 August 2022), assuming a competitive mechanism (Equation (13)). This tool takes into account the free concentrations of protein and ligand. (13) Ki=(IC50−[protein]/2)/([peptide]/Kd+1)
# [3] = target: T1, RSV N-RNA complex (full-length N …); assay: fluorescence polarisation; 200 nM dicyano BODIPY FL-labelled BCNn peptide, N-RNA varied; 20 mM Tris pH 8.0 without salt, 0.01% Brij-35; 20 °C; single site model; conditions: both partners purified
# [4] = target: T1, RSV N-RNA complex (full-length N …); assay: fluorescence polarisation; 200 nM dicyano BODIPY FL-labelled BCNn peptide, N-RNA varied; 20 mM Tris pH 8.0 with 100 mM NaCl, 0.01% Brij-35; 20 °C; single site model; conditions: both partners purified
# [5] = target: T1, RSV N-RNA complex (full-length N …); assay: fluorescence polarisation; competition: unlabeled P peptide varied against 200 nM F11 on 10 µM N-RNA; Tris pH 8 without salt; Hill equation; Ki from the IC50-to-Ki server; conditions: both partners purified
# [6] = target: T1, RSV N-RNA complex (full-length N …); assay: fluorescence polarisation; 200 nM FTU-labelled Fn peptide, N-RNA varied (up to 40 µM N); 20 mM Tris pH 8.0 without salt, 0.01% Brij-35; 20 °C; 30 min incubation; single site model, or with a linear contribution where marked (*); conditions: both partners purified
# [7] = BCNn peptides 200 nM, Tris pH 8.0, no salt, single site model
molecule,measurement,setting,value
Cc1cc(C)n2c1C=C1C=CC(CCC(=O)N[C@@H](CC(N)=O)C(=O)N[C@@H](CC(=O)O)C(=O)N[C@@H](CC(C)C)C(=O)N[C@@H](CCC(=O)O)C(=O)N[C@@H](CC(C)C)C(=O)N[C@@H](CCC(=O)O)C(=O)N[C@@H](CC(=O)O)C(=O)N[C@@H](Cc3ccccc3)C(=O)O)=[N+]1[B-]2(C#N)C#N [BCN8E] (X1-NDLELEDF-OH),decrease of affinity in salty buffer versus salt-free buffer,"RSV N-RNA complex [1]; 100 mM NaCl vs no salt, Tris pH 8",5 fold
same,Kd,RSV N-RNA complex [1]; [7],1.4 µM
same,ΔFPmax,RSV N-RNA complex [1]; [7],298 ± 5 mFP
same,ΔFPmax,"RSV N-RNA complex [1]; BCNn peptides 200 nM, Tris pH 8.0, with salt (100 mM NaCl), (*) saturation not reached",284 ± 15 (*) mFP
same,Fitted FPmax,"RSV N-RNA complex [2]; inhibitor M76, [N-RNA] 2 µM",166 mFP
same,Fitted FPmax,"RSV N-RNA complex [2]; inhibitor M76, [N-RNA] 5 µM",196 mFP
"{dicyano BODIPY FL}-NDLELEDF (C-terminal 8 residues of RSV phosphoprotein P with a phosphomimetic glutamate at 237; also called B8E; source: synthetic peptide (Fmoc/tBu solid phase, dicyano BODIPY FL coupled on resin, RP-HPLC purified)) [BCN8E (dicyano BODIPY FL-labelled RSV P 8-mer, Ser237Glu)]",Kd,[3],1.43 ± 0.08 µM
same,Kd,[4],7.1 ± 0.1 µM
"DNDLELEDF (unlabeled peptide from which F9E was made; C-terminal 9 residues of RSV phosphoprotein P; source: synthetic peptide (Fmoc/tBu solid phase, RP-HPLC purified)) [P9E (unlabeled RSV P 9-mer, Ser237Glu)]",IC50,[5],66 ± 6 µM
same,Ki,[5],25 µM
"{dicyano BODIPY FL}-DSDNDLELEDF (C-terminal 11 residues of RSV phosphoprotein P with a phosphomimetic glutamate at 237; source: synthetic peptide (Fmoc/tBu solid phase, dicyano BODIPY FL coupled on resin, RP-HPLC purified)) [BCN_(11SE) (dicyano BODIPY FL-labelled RSV P 11-mer, Ser237Glu)]",Kd,[3],0.82 ± 0.22 µM
same,Kd,[4],0.55 ± 0.07 µM
"{FITC}-DSDNDLELEDF (C-terminal 11 residues of RSV phosphoprotein P with a phosphomimetic glutamate at 237; source: synthetic peptide (Fmoc/tBu solid phase), FITC coupled in solution, HPLC purified) [F_(11SE) (FTU-labelled RSV P 11-mer, Ser237Glu)]",Kd,[6],0.87 ± 0.26 µM
"DSDNDLSLEDF (unlabeled peptide from which F11 was made; C-terminal 11 residues of RSV phosphoprotein P; also called P_(11SS); source: bought: GeneCust (synthetic peptide, >95% purity)) [P11 (unlabeled RSV P C-terminal 11-mer)]",IC50,[5],86 ± 7 µM
same,Ki,[5],34 µM
"{FITC}-DEDNDLELEDF (C-terminal 11 residues of RSV phosphoprotein P with phosphomimetic glutamates at 232 and 237; source: synthetic peptide (Fmoc/tBu solid phase), FITC coupled in solution, HPLC purified) [F_(11EE) (FTU-labelled RSV P 11-mer, Ser232Glu/Ser237Glu)]",Kd,[6],0.38 ± 0.12 µM
